Test results published in patent publication US20250082754A1 (NANJING LEGEND BIOTECH, published 2025).

B1: AS138521 (scFv)
scFv (VL-linker-VH): SSELTQPAAVSVSLGETARITCQGGNFGSYYATWYQQKPGQAPVLVIYANSNRPSGIPERFSGSSSGGTATLTISGAQAEDEADYYCQSYDNSANAVFGGGTHLTVLGGGGSGGGGSGGGGSEVQLVESGGGLVQPGGSLRLSCAASGSTFWSYYMSWVRQAPGKGLEWVSSIYSDGSYAYYADSVKGRFTISRDNAKNTVYLQMNSLKSEDTALYYCATAPTPDGGSWLWYNYWGQGTQVTVSS
notes: Format as for f1; also called anti-CD33 IgG1 AS138521; AS138521 scFv
B2: AS141996 (scFv)
scFv (VL-linker-VH): SSELTQPSAVSVSLGETARITCQGGNVGSSYASWYQQKPGQAPVLVIYEDSERPSGIAERFSGSSSGGTATLTISGAQAEDEADYYCQSADNNGAVFGGGTHLTVLGGGGSGGGGSGGGGSEVQVVESGGGLVQPGGSLRLSCAGSGFTFSSYAMSWVRQAPGKGLEWVSTINSGGGSTYYADSVKGRFTISRDNAKNTLYLQLNSLKTEDTAMYYCANHLLIIYSDYDVRGSEAWETWGQGTLVTVSS
notes: Format as for f1; also called anti-CD33 IgG1 AS141996; AS141996 scFv
B3: AS188893 (scFv)
scFv (VL-linker-VH): SYELTQPSAVSVSLGQTARITCQGGNLGTSYVHWYQQKPGQAPVLVIYGDDSRPSGIPERFSGSSSGGTATLTISGAQAEDEADYYCQSYDSSSSVFGGGTHLTVLGGGGSGGGGSGGGGSQVQLQESGGGLVQPGGSLRLSCAASGFTFSNNWMYWVRQAPGKGLEWVSSIATGDGSTNSADSVKGRFTISRDNTKNMLYLQMNSLKSEDTALYYCAKGVNIDHDVGAGDYWGQGTQVTVSS
notes: Format as for f1; also called anti-CD33 IgG1 AS188893; AS188893 scFv
B4: AS200728C (scFv)
scFv (VL-linker-VH): QAVVTQLSSMSGSPGQTVTITCTGSSSNIGGGYYLSWYQQLPGTAPKLLIYNVNNRASGVPNRFSGSKTGSLASLTITGLQAEDEADYYCGSYDESLSYVFGGGTHLTVLGGGGSGGGGSGGGGSQVQLVESGGGLVQPGGSLRVSCAASGFTFKNYYMGWVRQAPGKGLEWISGINSGGEVTTYADSVKDRFTISRDNAKNTLYLQMNSLKPDDTALYYCAGGEGSSWYPDYYYGNGYWGEGTLITVSS
notes: Format as for f1; also called anti-CD33 IgG1 AS200728C; AS200728C scFv
B5: AS141837 (scFv)
scFv (VL-linker-VH): SSELTQPSAVSVSLGETARITCQGVNVGSYYASWYQQKPGQAPVLVIYGNSNRPSGIPERFSGSKSGGTATLTISGAQAEDEADYYCQSADSSAFNAVFGGGTHLTVLGGGGSGGGGSGGGGSQVQLVQSGGGLVQPGGSLRLSCAASGFTFSSYDMTWVRQAPGKGLEWVSAVNSGGGTTYYADSVKGRFTISRDNAKNTLYLQMNSLKTEDTAVYYCATAIEREEDPLWVGPEYNTWGQGTQVTVSS
notes: Format as for f1; also called anti-CD33 IgG1 AS141837; AS141837 scFv
B6: AS141869 (scFv)
scFv (VL-linker-VH): NFMLTQPSAVSVSLGETARITCQGGNVGTSYASWYQQKPGQAPVLVIYGNSNRPSGIPERFSGSKSGGTATLTISGAQAEDEADYYCQSADSRGYVAFGGGTHLTVLGGGGSGGGGSGGGGSQVQLQESGGGLVQPGGSLRLSCAASGFTFSSYDITWVRQAPGKGLEWVSAINSGGNSTYYADSVKGRFTISRDNAKNTLYLQMNSLKTEDTAVYYCATAIEREEDPLWVGPEYNYWGQGTQVTVSS
notes: The legend calls it anti-CD33 IgG1; also called anti-CD33 IgG1 AS141869; AS141869 scFv
B7: AS142077 (scFv)
scFv (VL-linker-VH): SYELTQPSAMSVSLGETTRITCQGGNIESSYASWYQQKPGQAPALVIYEDSERPSRIPERFSGSSSGGTATLTISGAQAEDEADYYCQSADSSGYNPVFGGGTHLTVLGGGGSGGGGSGGGGSQVQLVESGGGLVQPGGSLRLSCAASGFTFSSYAMSWVRQAPGKGLEWVSGINSGGGSTYYADSVKGRFTISRDNAKNTLYLQLNSLKTEDTAMYYCAKHLLIIYSDYDVRGSEALDAWGQGTLVTVSS
notes: Format as for f1; also called anti-CD33 IgG1 AS142077; AS142077 scFv
B8: AS141974 (scFv)
scFv (VL-linker-VH): NFMLTQPAAVSVSLGETARITCQGGNFGSYYASWYQQKPGQAPVLVIYANSNRPSGIPERFSGSSSGGTATLTISGAQAEDEADYYCQSYDSSAAVFGGGTHLTVLGGGGSGGGGSGGGGSQVQLQESGGGLVQPGGSLRLSCAASGFTFSSYAMSWVRQAPGKGLEWVSAINSGGGSTYYADSVKGRFTISRDNAKNTLYLQLNSLKTEDTAMYYCAKEGGLYYSDYDELYFGYWGQGTQVTVSS
notes: Format as for f1; also called anti-CD33 IgG1 AS141974; AS141974 scFv
B9: AS199757 (scFv)
scFv (VL-linker-VH): NFMLTQPPSVSGSPGQKFTISCTGSSNNIGDNYVNWYQHLPGTAPKLLIYSNNNRASGVPDRFSGSKSGSSASLTITGLQAEDEADYYCSSWDDSLSGFVFGGGTHLTVLGGGGSGGGGSGGGGSAVQLVESGGGLVQPGGSLRLTCAASGFTFDNYGMSWVRQAPGKGLEWVSAIMWNGGTTYYAEPMKGRFTISRDNAKNTVYLQMNSLKSEDTAVYYCARHGSSWYAMDYWGQGTQVTVSS
notes: Format as for f1; also called anti-CD33 IgG1 AS199757; AS199757 scFv
B10: AS199772 (scFv)
scFv (VL-linker-VH): SYELTQSPSVSVALRQAAKITCRGDNIETKYAYWYQQKPGQSPLLVIYKDDNRPSGIPERFSGSNSGNMATLTISGAQAEDEADYYCQVWDSSANWVFGGGTHLTVLGGGGSGGGGSGGGGSQVQLQESGGGLVQPGGSLRLSCAASGFTFSSYWMYWVRQAPGKGLEWVSAMNTGGGSTYYGDSVKGRFTVSRDNAKNTLALQMNSLKPEDTALYYCARSWGGMYSGGYYEYSGMDYWGKGTLVTVSS
notes: Format as for f1; also called anti-CD33 IgG1 AS199772; AS199772 scFv
B11: AS141962 (scFv)
scFv (VL-linker-VH): QAVLTQPSSVSGTPGQTVTISCAGTSSDVGSTNYVSWYRQLPGTAPKLLIYQVNYRASGIADRFSGSKSGNTASLTISGLQSADEADYYCASRSGNNFVFGGGTHLTVLGGGGSGGGGSGGGGSEVQLVESGGGLVQPGGSLRLSCAASGFTFSDFSIFWVRQAPGKGLEWVSSINFGGDRTYYADSVKGRFTISRNNAENTVYLQMNSLKAEDTAAYHCVTTAVALADCSGGCYTPGAFNAWGQGTLVTISS
notes: Format as for f1; also called anti-CD33 IgG1 AS141962; AS141962 scFv
B12: AS199911 (scFv)
scFv (VL-linker-VH): SYELTQPSALSVTLGQSAKITCQGDNFETTYVHWYQQKPGQAPVLVIYNDDSRPSGIPERFSGSNSGDRATLTISGAQAEDEGDYYCQSADTSGNAYVFGGGTHLTVLGGGGSGGGGSGGGGSAVQLVESGGGLVQPGGSLRLSCAASGFTFSRSDMSWVRQAPGKGLEWVSYINSGGGTNRYADSVKARFTIFRDNAKNTLYLQMNTLKPEDTAVYYCAKSGFDSDWIFGYLERWGQGTLVTVSS
notes: Format as for f1; also called anti-CD33 IgG1 AS199911; AS199911 scFv
B13: AS187809 (scFv)
scFv (VL-linker-VH): EIVMTQSPSSVTASAGEKVTINCKSSQSVLYSSNQKSYLAWYQQRPGQSPRLLIYYASTRESGVPDRFSGSGSTTDFTLTISSVQPEDAAVYYCQQGYSAPVTFGQGTKLELKGGGGSGGGGSGGGGSQVQLQESGGGLVQPGGSLRLSCAASGFTFSRYYMSWVRQAPGKGLEWVSSIYSDGSNTYYTDSVKGRFTISRDNAKNTVYLQMNSLKSEDTAQYYCATDRDCSGIHCGAFGYWGQGTQVTVSS
notes: Format as for f1; also called anti-CD33 IgG1 AS187809; AS187809 scFv
B14: AS142096 (scFv)
scFv (VL-linker-VH): NFMLTQPSAVSVSLGETARITCQGGKVGSNYASWYQQKPGQAPVLVIYGDDSRPSGIPERFSGSSSGGTATLTISGAQAEDEADYYCQSYDSSGYNAVFGGGTHLTVLGGGGSGGGGSGGGGSQVQLVESGGGLVQPGGSLRLSCAASGFTFFSYYMSWVRQAPGKGLEWVSSIYSDGSNTYYADSVKGRFTISRDNAKNTVYLQMNSLKSEDTALYYCATAGYYSDYVEFEYWGQGILVTVSS
notes: Format as for f1; also called anti-CD33 IgG1 AS142096; AS142096 scFv

What was measured:
human CD33 protein = target: T1, human CD33 protein (human, UniProt P20138 18-259); test: SPR (BIACORE T200), antibody fragment captured by affinity tag, 100 nM human CD33 flowed over, estimate from one concentration; column KD; no unit printed on the sheet
T1 construct: extracellular domain; It is not tied to the protein used in the screen, so it is not used here; also called recombinant human CD33 protein; CD33 ECD proteins
T1 sequence (P20138 18-259): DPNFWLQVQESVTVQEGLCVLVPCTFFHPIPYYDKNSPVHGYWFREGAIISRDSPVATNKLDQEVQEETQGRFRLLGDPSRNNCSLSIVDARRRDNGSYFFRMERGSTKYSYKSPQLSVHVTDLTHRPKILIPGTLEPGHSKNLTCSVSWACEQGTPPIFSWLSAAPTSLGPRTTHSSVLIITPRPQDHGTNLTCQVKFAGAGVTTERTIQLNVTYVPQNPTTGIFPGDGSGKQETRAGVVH
Method: The scFv proteins in the supernatant were analyzed for their ability to bind to CD33 ECD proteins by ELISA and CD33-overexpressing MV4-11 cell lines by FACS. All binders were sequenced and some were subjected to for further characterization including affinity ranking by surface plasmon resonance (SPR) on a BIACORE® T200 instrument. The experiments were carried out as follows: the crude […] proteins were captured through an affinity tag onto the sensorchip. High-concentration (100 nM) of human CD33 flowed over the sensorchip surface, and was allowed to bind the antibody fragments. On-rate (kon) and off-rate (koff) were roughly calculated based on the association and dissociation of one antigen concentration, and were used to estimate the equilibrium dissociation constant (KD).

Human CD33 C2 domain = target: T2, Human CD33 C2 domain (human, UniProt P20138); test: +/- column 'Human CD33 C2 domain' of the drawn table; legend: cell binding properties; assay not named on the sheet
T2 construct: C2 domain only; also called C2-set Ig-like domain of human CD33
T2 sequence (P20138 145-228 limits assumed): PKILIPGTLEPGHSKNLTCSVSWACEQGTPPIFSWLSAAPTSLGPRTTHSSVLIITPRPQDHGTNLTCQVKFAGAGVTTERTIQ

Binder	Kd (human CD33 protein) [nM]	binding result (Human CD33 C2 domain)
B1	0.364	no binding (tested: not given)
B2	0.0624	no binding (tested: not given)
B3	0.064	–
B4	0.24	–
B5	21.4	no binding (tested: not given)
B6	11.5	no binding (tested: not given)
B7	0.348	no binding (tested: not given)
B8	1.79	no binding (tested: not given)
B9	1.5	–
B10	0.067	–
B11	3.06	no binding (tested: not given)
B12	0.35	–
B13	1.08	–
B14	0.27	no binding (tested: not given)
